Results on 3 molecules are retold here after patent publication US9758792B2, “Glyphosate resistant class 1 EPSPS genes” (SYNGENTA PARTICIPATIONS AG, priority 2013, dated 2017).

In assay [1] the target is native EPSPS from E. coli (Escherichia coli, UniProt P0A6D3). The following applies: read-out: apparent Km for PEP; cited from earlier work.
The next assay deals with tobacco leaf discs. Description: Screening maize mutants using tobacco regeneration system on glyphosate medium. As to conditions: regeneration medium containing 50 nM glyphosate and 200 mg/L Timentin. It counts as cell-based. Here is the method: The efficacy of maize mutant genes (Table 2) were tested using a tobacco leaf discs transformation/regeneration system. […] Additionally, a third mutant comprising the mutations of mutant #8 and #13 is possible resulting in an […] mutant.

Assay [2] has as its system T0 transgenic tobacco plants. Description: Spray with glyphosate (Touchdown) on ZmEPSPS mutant containing tobacco. In kind it is in vivo. The following applies: for tolerance to Touchdown spray: 2× and 4× field rates; for tolerance to Touchdown spray / herbicide damage: 2 weeks post treatment; for herbicide damage: 4× field rates as printed in the text; for Damage: assessed 2 weeks post treatment. The protocol: T0 transgenic tobacco plants were grown on soil for 4 weeks in Conviron growth chambers. These plants were sprayed with 2×, 4× and 8× Touchdown herbicide at 2×, 4× and 8× field rate (1× field rate=1680 g AE/Ha), respectively, and the herbicide damage was assessed 2 weeks post treatment. […]

Where [3] appears, read: Touchdown 2X field rate (1X = 1680 g AE/Ha).
Setting [4] is: Touchdown 4X field rate (1X = 1680 g AE/Ha).
Setting [5] is: Touchdown 8X field rate (1X = 1680 g AE/Ha).

By Km is commonly meant the concentration of substrate that gives half-maximal velocity.

Chain of native EPSPS from E. coli (P0A6D3 whole entry): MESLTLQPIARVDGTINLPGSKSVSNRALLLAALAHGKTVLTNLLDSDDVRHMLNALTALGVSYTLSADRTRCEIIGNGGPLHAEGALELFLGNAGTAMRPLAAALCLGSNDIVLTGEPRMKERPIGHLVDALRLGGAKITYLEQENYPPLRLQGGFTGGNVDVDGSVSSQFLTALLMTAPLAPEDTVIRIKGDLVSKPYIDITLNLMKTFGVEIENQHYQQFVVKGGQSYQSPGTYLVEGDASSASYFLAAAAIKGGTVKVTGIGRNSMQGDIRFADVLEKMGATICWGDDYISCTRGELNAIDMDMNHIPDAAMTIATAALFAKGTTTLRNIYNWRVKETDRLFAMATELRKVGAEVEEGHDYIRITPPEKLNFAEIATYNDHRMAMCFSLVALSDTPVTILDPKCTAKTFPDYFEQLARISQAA

As to `C=C(OP(=O)(O)O)C(=O)O` [PEP, phosphoenolpyruvic acid], the Km in assay [1] is 10 µM.

B1: ZmEPSPS-20: maize EPSPS mutant gene/protein, A68D and T102I; contains Table 2 mutant #13; SEQ ID NO. 6 (protein)
chain: AGAEEIVLQPIKEISGTVKLPGSKSLSNRILLLAALSEGTTVVDNLLNSEDVHYMLGALRTLGLSVEXDKAAKRAVVVGCGGKFPVEDAKEEVQLFLGNAGIAMRPLTAAVTAAGGNATYVLDGVPRMRERPIGDLVVGLKQLGADVDCFLGTDCPPVRVNGIGGLPGGKVKLSGSISSQYLSALLMAAPLALGDVEIEIIDKLISIPYVEMTLRLMERFGVKAEHSDSWDRFYIKGGQKYKSPKNAYVEGDASSASYFLAGAAITGGTVTVEGCGTTSLQGDVKFAEVLEMMGAKVTWTETSVTVTGPPREPFGRKHLKAIDVNMNKMPDVAMTLAVVALFADGPTAIRDVASWRVKETERMVAIRTELTKLGASVEEGPDYCIITPPEKLNVTAIDTYDDHRMAMAFSLAACAEVPVTIRDPGCTRKTFPDYFDVLSTFVKN
modifications: Mutated zea mays; (68)..(68) X = D or E
In the case of B1, the “ability to regenerate on glyphosate media” value with tobacco leaf discs is on record as “tolerant mutants”. Besides, the “tolerance to Touchdown spray” value in assay [2] is reported as “completely tolerant”. In addition, in assay [2], the herbicide damage entry is recorded as “only minor damage”. In addition, the figures for the Damage entry in assay [2] (setting [3]), in assay [2] (setting [4]) and in assay [2] (setting [5]) were “No damage”, “No damage” and “Minor damage at shoot apex”, respectively.

B2: ZmEPSPS-27: maize EPSPS mutant gene/protein, A68E and G101C; contains Table 2 mutant #8; SEQ ID NO. 7 (protein)
chain: AGAEEIVLQPIKEISGTVKLPGSKSLSNRILLLAALSEGTTVVDNLLNSEDVHYMLGALRTLGLSVEXDKAAKRAVVVGCGGKFPVEDAKEEVQLFLGNACTAMRPLTAAVTAAGGNATYVLDGVPRMRERPIGDLVVGLKQLGADVDCFLGTDCPPVRVNGIGGLPGGKVKLSGSISSQYLSALLMAAPLALGDVEIEIIDKLISIPYVEMTLRLMERFGVKAEHSDSWDRFYIKGGQKYKSPKNAYVEGDASSASYFLAGAAITGGTVTVEGCGTTSLQGDVKFAEVLEMMGAKVTWTETSVTVTGPPREPFGRKHLKAIDVNMNKMPDVAMTLAVVALFADGPTAIRDVASWRVKETERMVAIRTELTKLGASVEEGPDYCIITPPEKLNVTAIDTYDDHRMAMAFSLAACAEVPVTIRDPGCTRKTFPDYFDVLSTFVKN
modifications: Mutated zea mays; (68)..(68) X = D or E
Regarding B2, in the assay with tobacco leaf discs, the “ability to regenerate on glyphosate media” value was “tolerant mutants”. Moreover, the “tolerance to Touchdown spray” value in assay [2] was “completely tolerant”. The herbicide damage result in assay [2] is recorded as “only minor damage”. In addition, the Damage entry is recorded as “No damage” in assay [2] (setting [3]); “No damage” in assay [2] (setting [4]); “Minor damage, some” in assay [2] (setting [5]).
